The target of the assay is hLDLR of non-genetically modified human cells (human fibroblasts, HUVEC) (human), P01130. The experiment in a line: FACS on HUVEC.
Chain of hLDLR of non-genetically modified human cells (human fibroblasts, HUVEC) (human), P01130 (P01130 22-860): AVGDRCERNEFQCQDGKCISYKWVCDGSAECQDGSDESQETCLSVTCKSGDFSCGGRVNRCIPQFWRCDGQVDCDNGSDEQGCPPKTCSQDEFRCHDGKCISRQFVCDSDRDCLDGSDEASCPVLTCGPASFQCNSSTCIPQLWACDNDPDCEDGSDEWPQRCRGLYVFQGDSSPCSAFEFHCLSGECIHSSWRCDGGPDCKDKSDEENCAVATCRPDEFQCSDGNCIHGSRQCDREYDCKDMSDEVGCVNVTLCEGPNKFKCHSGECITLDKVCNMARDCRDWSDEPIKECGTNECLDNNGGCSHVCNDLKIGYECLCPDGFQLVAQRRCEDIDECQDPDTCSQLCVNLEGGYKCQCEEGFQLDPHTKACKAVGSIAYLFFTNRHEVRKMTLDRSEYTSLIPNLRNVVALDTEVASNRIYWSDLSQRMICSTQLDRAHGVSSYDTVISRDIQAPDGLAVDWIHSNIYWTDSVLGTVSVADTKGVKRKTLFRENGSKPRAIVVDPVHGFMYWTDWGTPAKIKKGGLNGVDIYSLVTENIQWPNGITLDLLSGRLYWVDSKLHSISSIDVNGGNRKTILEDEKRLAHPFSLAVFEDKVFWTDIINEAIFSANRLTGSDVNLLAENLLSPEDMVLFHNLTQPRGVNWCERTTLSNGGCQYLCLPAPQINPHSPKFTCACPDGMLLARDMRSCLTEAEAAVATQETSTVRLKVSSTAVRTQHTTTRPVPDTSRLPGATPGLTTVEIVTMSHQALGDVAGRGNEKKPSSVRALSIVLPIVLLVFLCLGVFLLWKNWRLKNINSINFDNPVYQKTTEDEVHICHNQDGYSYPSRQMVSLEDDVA

In the case of TPSAHAMALQSLSVG (modifications not checked) [bacterial virus clone expressing linear peptide SEQ ID NO: 21], the percentage of shift of the fluorescence signal in zone Q2 is more than 55.8%.
Turning to DSGLCMPRLRGCDPR (modifications not checked) [bacterial virus clone expressing cyclic peptide SEQ ID NO: 11], the percentage of shift of the fluorescence signal in zone Q2 is more than 70%.
